The values that follow come from patent US20130058935A1 (INSTITUTE FOR CANCER RESEARCH, published 2013).

One may read the Kd as the constant that tells how readily two partners part at equilibrium. A high value points to a looser complex.

In the assay the target is T1, mouse TEM7R extracellular domain, 6xHis-tagged, secreted (mouse, UniProt Q9DC11 31-455).
T1 construct: extracellular domain; also called mTEM7R ECD; TEM7R ECD; not shown: 6xHis tag from the pSecTag2/Hygro A vector
In words: SPR (BIAcore), ECD immobilised on CM5 chip, 1:1 Langmuir fit. As for the experimental part: scFvs were expressed in E. coli and purified by sequential IMAC and size exclusion chromatography (Robinson, M K et al. (2005) Cancer Research 65:1471-8). Binding of the TEM7R scFv, to extracellular domain (ECDs) was characterized by SPR using TEM7R ECD as the target antigen (Yuan, Q A et al. (2006) Mol. Cancer Ther. 5:2096-105). ECD was diluted to 10 μg/mL in 10 mM sodium acetate pH 5.2 and approximately 200 RU of ECD were immobilized onto CM5 sensor chips via NHS-ester chemistry.
Kinetic constants for A5 were determined by passing serially diluted samples (0 nM to 2 μM) over flow cells at flow rate of 40 μL/min. Response against an ErbB2 coated flow cell was used as a negative control and subtracted from the response generated against the TEM7R ECD to obtain the final sensorgrams. Data was evaluated using BIAEvaluation 3.2 software (BIAcore, Piscataway, N.J.) and fit using the 1:1 Langmuir binding model. Flow cells were regenerated by sequential 15-second pulses with 10 mM glycine, pH 2 and 50 mM Triethylamine, pH 10 followed by equilibration with PBS running buffer.
In general terms: In SPR one partner is held on a chip, and binding of the other changes the refractive index at the surface.

T1 sequence (Q9DC11 31-455): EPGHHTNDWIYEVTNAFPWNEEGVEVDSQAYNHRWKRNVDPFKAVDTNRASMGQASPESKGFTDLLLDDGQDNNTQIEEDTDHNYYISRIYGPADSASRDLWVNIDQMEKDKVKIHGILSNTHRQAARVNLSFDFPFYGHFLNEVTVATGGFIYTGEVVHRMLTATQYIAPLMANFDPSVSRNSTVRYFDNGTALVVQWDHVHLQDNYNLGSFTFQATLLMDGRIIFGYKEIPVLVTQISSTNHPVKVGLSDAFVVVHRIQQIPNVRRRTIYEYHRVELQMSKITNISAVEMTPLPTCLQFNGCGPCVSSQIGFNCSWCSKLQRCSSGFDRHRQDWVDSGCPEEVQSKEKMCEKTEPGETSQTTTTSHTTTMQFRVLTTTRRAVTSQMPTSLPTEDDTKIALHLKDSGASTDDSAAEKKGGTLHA

B1: anti-mTEM7R scFv#4 (scFv)
scFv: MAQVQLVESGGGLVQPGGSLRLSCAASGFTFSSYEMNWVRQAPGKGLEWVSYISSSGSTIYYADSVKGRFTISRDNSKNTLYLQMNSLRAEDTAVYYCASGDYMDVWGQGTTVTVSSSASGAELGGGGSGGGGSGGGGSTSDIQLTQSPSSLSASVGDRVTITCQASQDISNYLNWYQQKPGKAPKLLMYDASNLETGVPSRFSGSGSGTDFTFTISSLQPEDFATYYCQQSDNLPYTFGQGTKVDIKRS
notes: Human scFv from a naive phage library, expressed in E. coli TG1 (pUC119mycHis / pSYN2) and purified by Ni-NTA, so it carries a His tag; also called clone 4; anti-TEM7R scFv
With B1, the Kd amounted to 10 nM.
